In patent publication US8962697:

T1: LAR-7009
T1 chain: PRRRRPRQITA

T2: LAR-7047
T2 chain: VFFRRQTA

T3: LAR-7048
T3 chain: PRRICV

B1: Matrix Metalloproteinase-9 (protein)
chain: MRTPRCGVPDLGRFQTFEGDLKWHHHNITYWIQNYSEDLPRAVIDDAFARAFALWSAVTPLTFTRVYSRDADIVIQFGVAEHGDGYPFDGKDGLLAHAFPPGPGIQGDAHFDDDELWSLGKGVVVPTRFGNADGAACHFPFIFEGRSYSACTTDGRSDGLPWCSTTANYDTDDRFGFCPSERLYTQDGNADGKPCQFPFIFQGQSYSACTTDGRSDGYRWCATTANYDRDKLFGFCPTRADSTVMGGNSAGELCVFPFTFLGKEYSTCTSEGRGDGRLWCATTSNFDSDKKWGFCPDQGYSLFLVAAHEFGHALGLDHSSVPEALMYPMYRFTEGPPLHKDDVNGIRHLYGPRPEPEPRPPTTTTPQPTAPPTVCPTGPPTVHPSERPTAGPTGPPSAGPTGPPTAGPSTATTVPLSPVDDACNVNIFDAIAEIGNQLYLFKDGKYWRFSEGRGSRPQGPFLIADKWPALPRKLDSVFEERLSKKLFFFSGRQVWVYTGASVLGPRRLDKLGLGADVAQVTGALRSGRGKMLLFSGRRLWRFDVKAQMVDPRSASEVDRMFPGVPLDTHDVFQYREKAYFCQDRFYWRVSSRSELNQVDQVGYVTYDILQCPED
B2: Aureolysin (protein)
chain: AAATGTGKGVLGDTKDININSIDGGFSLEDLTHQGKLSAYNFNDQTGQATLITNEDENFVKDDQRAGVDANYYAKQTYDYYKNTFGRESYDNHGSPIVSLTHVNHYGGQDNRNNAAWIGDKMIYGDGDGRTFTNLSGANDVVAHELTHGVTQETANLEYKDQSGALNESFSDVFGYFVDDEDFLMGEDVYTPGKEGDALRSMSNPEQFGQPSHMKDYVYTEKDNGGVHTNSGIPNKAAYNVIQAIGKSKSEQIYYRALTEYLTSNSNFKDCKDALYQAAKDLYDEQTAEQVYEAWNEVGVE

How the values were obtained:
LAR-7009 = target: T1, LAR-7009
LAR-7047 = target: T2, LAR-7047
LAR-7048 = target: T3, LAR-7048

Protein | hydrolysis of the peptide substrate, fragments by mass spectrometry (LAR-7009) | degradation of the control peptide (LAR-7047) | degradation of the control peptide (LAR-7048)
B1 | Degradation of LAR-7009 ... produced specific fragment pick: 1121.66 corresponding to [..] sequence | No degradation was observed in these systems | No degradation was observed in these systems
B2 |  | No degradation was observed in these systems | No degradation was observed in these systems
